This is an account of results in article PMC6385242, “Identification and characterization of a factor Va-binding site on human prothrombin fragment 2” (Scientific Reports, 2019).

In assay [1] the target is Factor Va (UniProt P12259). The assay is described as follows: SPR; Biacore T200; FVa amine-coupled on a CM5 chip (8000-9000 RU); prothrombin 0-10,000 nM injected for 60 s at 30 uL/min; HBS (0.02 M HEPES, 0.15 M NaCl, pH 7.4) with 5 mM CaCl2 and 0.01% Tween-80; kinetic 1:1 Langmuir model. A general note: SPR reads the build-up and loss of mass on a sensor chip optically.
Assay [2] deals with Factor Va (UniProt P12259).
Assay [3] deals with Factor Va (UniProt P12259). This is another data set of the same source.

Factor Va, sequence (P12259 29-737, chain 1 of 2): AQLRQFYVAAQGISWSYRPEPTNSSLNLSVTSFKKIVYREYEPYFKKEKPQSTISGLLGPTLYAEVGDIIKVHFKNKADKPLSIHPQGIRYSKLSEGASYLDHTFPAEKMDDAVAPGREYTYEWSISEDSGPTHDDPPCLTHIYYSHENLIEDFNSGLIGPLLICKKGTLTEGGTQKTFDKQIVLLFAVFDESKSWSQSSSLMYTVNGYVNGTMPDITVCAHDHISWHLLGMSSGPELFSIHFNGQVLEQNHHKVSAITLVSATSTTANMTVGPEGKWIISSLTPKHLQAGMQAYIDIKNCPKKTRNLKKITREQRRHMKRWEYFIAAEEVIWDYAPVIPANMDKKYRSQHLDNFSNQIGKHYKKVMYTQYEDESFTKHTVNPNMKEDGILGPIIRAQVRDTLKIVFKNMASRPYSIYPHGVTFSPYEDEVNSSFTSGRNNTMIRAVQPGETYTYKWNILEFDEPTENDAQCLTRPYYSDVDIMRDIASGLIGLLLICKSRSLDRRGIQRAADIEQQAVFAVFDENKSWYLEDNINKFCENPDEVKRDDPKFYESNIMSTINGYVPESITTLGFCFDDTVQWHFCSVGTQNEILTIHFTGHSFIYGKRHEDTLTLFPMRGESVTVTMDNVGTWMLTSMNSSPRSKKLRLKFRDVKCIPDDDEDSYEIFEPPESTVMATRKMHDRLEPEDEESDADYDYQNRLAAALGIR
Factor Va, sequence (P12259 1574-2224, chain 2 of 2): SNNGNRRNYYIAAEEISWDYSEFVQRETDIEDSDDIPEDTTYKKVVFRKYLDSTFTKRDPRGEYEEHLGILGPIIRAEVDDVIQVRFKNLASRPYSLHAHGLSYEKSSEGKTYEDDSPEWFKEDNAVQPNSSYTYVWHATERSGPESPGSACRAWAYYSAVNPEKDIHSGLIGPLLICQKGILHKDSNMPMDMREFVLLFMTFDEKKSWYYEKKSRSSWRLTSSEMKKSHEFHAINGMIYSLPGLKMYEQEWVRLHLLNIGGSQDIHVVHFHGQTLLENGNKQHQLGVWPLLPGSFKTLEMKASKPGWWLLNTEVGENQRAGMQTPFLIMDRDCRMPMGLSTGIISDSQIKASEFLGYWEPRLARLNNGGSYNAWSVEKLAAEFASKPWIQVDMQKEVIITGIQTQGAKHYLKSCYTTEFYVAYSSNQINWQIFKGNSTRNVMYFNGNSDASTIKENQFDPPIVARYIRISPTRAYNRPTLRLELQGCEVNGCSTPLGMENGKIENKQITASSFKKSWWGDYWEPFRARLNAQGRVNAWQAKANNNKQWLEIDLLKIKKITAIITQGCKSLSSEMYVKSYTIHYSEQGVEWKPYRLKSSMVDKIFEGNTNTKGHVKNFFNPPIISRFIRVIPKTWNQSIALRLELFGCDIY

What is called Kd is the equilibrium constant for the complex coming apart. The substance “PT6 prothrombin (Gln177Ala, Gln179Ala, Arg181Ala, Leu182Thr, Val184Thr, Thr185Ala) (natural protein)” yielded a dissociation constant Kd in assay [1] of 2600 nM. In assay [2], this substance yielded an initial rate of thrombin generation, activation by FXa/FVa (5 nM FXa, 20 nM FVa, 5 mM CaCl2; DAPA) of 0.0053 s⁻¹ and an initial rate of thrombin generation, activation by full prothrombinase (20 pM FXa, 20 nM FVa, 50 uM PCPS, 5 mM CaCl2; DAPA) of 55.1 s⁻¹. In assay [3], this substance gave a total thrombin generated on activation by FXa/FVa, relative to wild-type prothrombin (% of wild type) of 35 and a total thrombin generated on activation by full prothrombinase, decrease against wild-type prothrombin (% lower than wild type) of 42.
